Consider 11 molecules from patent EP4696714A1, “PREPARATION METHOD FOR NANOBODY TARGETING TISSUE FACTOR AND CONJUGATE AND USE THEREOF” (Fudan University, priority 2023, dated 2024).

The conditions of experiment [1]: compared with MMDX and doxorubicin; cited from earlier work.
Experiment [2] relates to 18 human tumor cell lines. To be noted: average against 18 human tumor cell lines; cited from earlier work.
For experiment [3], the target named is T1, TF on the surface of tumor cells (MDA-MB-231, HPAF-II, HCC1806, BxPC3, HCC44, PC9, H1975 and other … (UniProt P13726 33-295, limits assumed)).
T1 construct: whole, on cells; the cell lines are human tumour lines; also called TF on cell surface; tumor cell surface TF
Put plainly: flow cytometry on MDA-MB-231 cells, PE-labeled secondary antibody. On the technique in general: In flow cytometry, cells or beads pass a laser one at a time.

Experiment [4] concerns the target T2, human TF extracellular domain protein (TF-ECD, Met 1-Glu 251) (human, UniProt P13726 33-251).
T2 construct: range 1-251; also called human TF-ECD; not shown: His tag (protein captured on an NTA sensor as 'FDYKSD-01-His')
Put plainly: ForteBio OCTET R2; His-tagged antigen on NTA sensor, nanobody-Fc 25-1.56 nM in solution, 25°C.

Experiment [5] deals with HCC1954 mammary pad xenograft. The experiment in a line: HCC1954 mammary pad xenograft experiment. It is filed as in vivo. The settings on record: once a week, twice in total.
Experiment [6] deals with T2, human TF extracellular domain protein …. The experiment in a line: ForteBio OCTET R2 (called SPR), method of Example 2. Background: Biolayer interferometry detects binding as a change in optical thickness at a sensor tip.
Experiment [7] deals with KRAS^G12D pancreatic cancer HPAF-II xenograft tumor. The experiment in a line: Pancreatic cancer HPAF-II xenograft model. It is filed as in vivo, Balb/c nude mice. The settings on record: 3 mg/kg, single-dose, tail vein. The procedure: Pancreatic ductal adenocarcinoma (PDAC) HPAF-II cells in logarithmic growth phase were subcutaneously inoculated into the bank of 5-week-old female Balb/c nude mice (purchased from Shanghai Sippr-BK Laboratory Animal Co., Ltd.) at a density of 2.5×10^6 cells per 200 µL serum-free medium. When tumor volume reached 100-200 mm^3, animals were randomly grouped, 8 tumors per group. The preferred TF-NDCs such as 4-A02-MMAE, 4-A02-ABD-MMAE were administered via tail vein injection at 3 mg/kg or 1 mg/kg on the day of grouping, with hIgG1-MMAE as the negative control. Only one dose was administered throughout the experiment. Tumor volume and mouse body weight were measured twice a week to plot growth curves. Tumor volume (V) was calculated using the formula: V = 1/2 × a × b^2, where a and b represent tumor length and width, respectively.

With `COc1cccc2c1C(=O)c1c(O)c3c(c(O)c1C2=O)C[C@@](O)(C(=O)CO)C[C@@H]3O[C@H]1C[C@H]2[C@H](O[C@@H]3[C@@H](OC)OCCN32)[C@H](C)O1` [PNU-159682], the increase in activity in experiment [1] is listed as 3000 folds. Usually IC50 stands for the midpoint of a concentration-inhibition curve. Take `CN[C@H](C(=O)N[C@H](C(=O)N(C)[C@H](/C=C(\C)C(=O)O)C(C)C)C(C)(C)C)C(C)(C)c1ccccc1` [Taltobulin]: the IC50 in experiment [2] was 2.5 nM.

B1: 5-H3-FC1 (chimeric nanobody: 5-H3 VHH fused with human Fc mutant fragment FC1) (Fc fusion)
chain: QVQLVESGGGLVQPGGSLRLSCVASGFTLANYAIGFYRRAPGKGREGVSCISRSDGDTYHVDSVKGRFTVSRDNAKNTAYLQMNSLVPEDTGVYYCRATEWCGVQDPHGYWGQGTQVTVSSEPKSSDKTHTCPPCPAPEFEGGPSVFLFPPKPKDTLMISRTPEVTCVVVDVSHEDPEVKFNWYVDGVEVHNAKTKPREEQYNSTYRVVSVLTVLHQDWLNGKEYKCKVSNKALPASIEKTISKAKGQPREPQVYTLPPSRDELTKNQVSLTCLVKGFYPSDIAVEWESNGQPENNYKTTPPVLDSDGSFFLYSKLTVDKSRWQQGNVFSCSVMHEALHNHYTQKSLSLSPGK
notes: built from the VHH and FC1
As usually defined, the EC50 is the midpoint of the concentration-response curve. A lower EC50 goes with an effect from little substance. In general, Kd refers to the free concentration of one partner at which half of the binding sites on the other are occupied at equilibrium, for simple one-to-one binding. Turning to B1, in experiment [3], the EC50 came to 0.25 µg/mL. Also, the dissociation constant (Kd) in experiment [4] worked out at 0.45 nM.

B2: 4-A02-FC1 (chimeric nanobody: 4-A02 VHH fused with human Fc mutant fragment FC1) (Fc fusion)
chain: QVQLVESGGGLVQPGGSLSLSCTASETISSTYIMGWHRRSPGKERELVAVISGDGVTHYADFVKGRFVISRDNAKNAVYLKMNFLTPEDTAVYYCYAAGRWNHWGQGTQVTVSSEPKSSDKTHTCPPCPAPEFEGGPSVFLFPPKPKDTLMISRTPEVTCVVVDVSHEDPEVKFNWYVDGVEVHNAKTKPREEQYNSTYRVVSVLTVLHQDWLNGKEYKCKVSNKALPASIEKTISKAKGQPREPQVYTLPPSRDELTKNQVSLTCLVKGFYPSDIAVEWESNGQPENNYKTTPPVLDSDGSFFLYSKLTVDKSRWQQGNVFSCSVMHEALHNHYTQKSLSLSPGK
notes: VHH-Fc fusion expressed in HEK293; also called chimeric antibody 4-A02
On to B2, for which it took 0.08 µg/mL to reach a half-maximal effect in experiment [3] (EC50). Moreover, the affinity in experiment [4], expressed as Kd, was 2.09 nM.

B3: 4-A02-DXd (conjugate)
chain: QVQLVESGGGLVQPGGSLSLSCTASETISSTYIMGWHRRSPGKERELVAVISGDGVTHYADFVKGRFVISRDNAKNAVYLKMNFLTPEDTAVYYCYAAGRWNHWGQGTQVTVSSEPKSSDKTHTCPPCPAPEFEGGPSVFLFPPKPKDTLMISRTPEVTCVVVDVSHEDPEVKFNWYVDGVEVHNAKTKPREEQYNSTYRVVSVLTVLHQDWLNGKEYKCKVSNKALPASIEKTISKAKGQPREPQVYTLPPSRDELTKNQVSLTCLVKGFYPSDIAVEWESNGQPENNYKTTPPVLDSDGSFFLYSKLTVDKSRWQQGNVFSCSVMHEALHNHYTQKSLSLSPGK
For the molecule B3, the “inhibition of tumor growth” value in experiment [5] (10 mg/kg intravenous) is “significant inhibition of tumor growth and caused tumor regression”.

B4: 4-E04-FC1 (chimeric nanobody: 4-E04 VHH fused with human Fc mutant fragment FC1) (Fc fusion)
chain: AVQLVESGGGLVQPGGSLSLSCAASEMISSTYIMGWYRRSPGKERELVAVISGDGVTHYGDFVKGRFAISRDNVKNAVYLKMNFLTPEDTAVYYCNAAGRRNHWGQGTQVTVSSEPKSSDKTHTCPPCPAPEFEGGPSVFLFPPKPKDTLMISRTPEVTCVVVDVSHEDPEVKFNWYVDGVEVHNAKTKPREEQYNSTYRVVSVLTVLHQDWLNGKEYKCKVSNKALPASIEKTISKAKGQPREPQVYTLPPSRDELTKNQVSLTCLVKGFYPSDIAVEWESNGQPENNYKTTPPVLDSDGSFFLYSKLTVDKSRWQQGNVFSCSVMHEALHNHYTQKSLSLSPGK
notes: built from the VHH and FC1
As for B4, the EC50 in experiment [3] stood at 0.13 µg/mL. In experiment [4], this molecule showed a dissociation constant (Kd) of 7.04 nM.

B5: original nanobody 4A02 (parental antibody 4A02, as comparator in Examples 11 and 12) (Fc fusion)
VHH: QVQLVESGGGLVQPGGSLSLSCTASETISSTYIMGWHRRSPGKERELVAVISGDGVTHYADFVKGRFVISRDNAKNAVYLKMNFLTPEDTAVYYCYAAGRWNHWGQGTQVTVSS
notes: not shown: Fc segment of the comparator
The molecule B5 registered an equilibrium dissociation constant (Kd) in experiment [6] of 0.29 nM.

B6: 4-A02-ABD-MMAE: NDC of 4-A02-ABD (monomer) coupled to mc-vc-MMAE, DAR1 (conjugate)
chain: QVQLVESGGGLVQPGGSLSLSCTASETISSTYIMGWHRRSPGKERELVAVISGDGVTHYADFVKGRFVISRDNAKNAVYLKMNFLTPEDTAVYYCYAAGRWNHWGQGTQVTVSSGGGGSGGGGSGGGGSQHDEAVDANSLAEAKVLANRELDKYGVSDYYKNLINNAKTVEGVKALIDEILAALPAAACAAAHHHHHH
For the molecule B6, the “anti-tumor effect (tumor volume)” value in experiment [7] is recorded as “complete tumor regression”. For the same molecule, the “inhibition of tumor growth” value in experiment [5] (3 mg/kg intravenous) was “significant inhibition of tumor growth and caused tumor regression”.

B7: 4-C05-FC1 (chimeric nanobody: 4-C05 VHH fused with human Fc mutant fragment FC1) (Fc fusion)
chain: QVQLVESGGGLVQPGGSLRLSCAASGFTLDTYAIGWIRQAPGKEREGVSCISSTDGSTYYAASVKGRFTINRDNAKNTVYLQMNSLKPEDTAVYYCAAGPGTDCPLRFDYWGQGIQVTVSSEPKSSDKTHTCPPCPAPEFEGGPSVFLFPPKPKDTLMISRTPEVTCVVVDVSHEDPEVKFNWYVDGVEVHNAKTKPREEQYNSTYRVVSVLTVLHQDWLNGKEYKCKVSNKALPASIEKTISKAKGQPREPQVYTLPPSRDELTKNQVSLTCLVKGFYPSDIAVEWESNGQPENNYKTTPPVLDSDGSFFLYSKLTVDKSRWQQGNVFSCSVMHEALHNHYTQKSLSLSPGK
notes: built from the VHH and FC1
Regarding B7, in experiment [3], the EC50 was 0.7 µg/mL. In experiment [4], this molecule registered a dissociation constant (Kd) of 0.2 nM.

B8: 5-C12-FC1 (chimeric nanobody: 5-C12 VHH fused with human Fc mutant fragment FC1) (Fc fusion)
chain: QVQLVESGGGLAQAGGSLRLSCAGSGRTFSTDAMGWFRQAPGKEREFVAAINWSGGSTYYADSVKGRFTISRDNAKNTVYLQMNSVKPEDTAVYYCVADSLLALLDGSRGGPGTDSDSWGQGTQVTVSSEPKSSDKTHTCPPCPAPEFEGGPSVFLFPPKPKDTLMISRTPEVTCVVVDVSHEDPEVKFNWYVDGVEVHNAKTKPREEQYNSTYRVVSVLTVLHQDWLNGKEYKCKVSNKALPASIEKTISKAKGQPREPQVYTLPPSRDELTKNQVSLTCLVKGFYPSDIAVEWESNGQPENNYKTTPPVLDSDGSFFLYSKLTVDKSRWQQGNVFSCSVMHEALHNHYTQKSLSLSPGK
notes: built from the VHH and FC1
Take B8: the half-maximal effective concentration (EC50) in experiment [3] came out at 0.47 µg/mL. In experiment [4], the affinity, expressed as Kd, was 0.001 nM.

B9: F1-A01-FC1 (chimeric nanobody: F1-A01 VHH fused with human Fc mutant fragment FC1) (Fc fusion)
chain: EVQLVESGGGLVQAGGSLRLSCAASGRAFSAYAMGWFRQAPGKEREFVAAISWSGGSTYYADSVRGRFTISRDNTKNTVYLQMNSLKPEDTAVYYCNADSLLSLLDGSRGGPGTDSGSWGQGTQVTVSSEPKSSDKTHTCPPCPAPEFEGGPSVFLFPPKPKDTLMISRTPEVTCVVVDVSHEDPEVKFNWYVDGVEVHNAKTKPREEQYNSTYRVVSVLTVLHQDWLNGKEYKCKVSNKALPASIEKTISKAKGQPREPQVYTLPPSRDELTKNQVSLTCLVKGFYPSDIAVEWESNGQPENNYKTTPPVLDSDGSFFLYSKLTVDKSRWQQGNVFSCSVMHEALHNHYTQKSLSLSPGK
notes: it is built from the VHH and FC1 as in 4-A02-FC1
Take B9: in experiment [3], the EC50 was found to be 0.75 µg/mL. In experiment [4], this molecule registered a Kd of 4.37 nM.
